Starred links: 1 amine or outer side, 2 acyl side, 3 side chain; linkers in the order of their positions; H or OH if unused. Positions of bridges follow the written chain, without caps; N, C: chain ends. Non-standard residues stand in square brackets, D forms with d. Primed or numbered codes have the meaning given here. B5(26) = 2-amino-2-(pent-4-en-1-yl)hept-6-enoic acid (bis-pentenylglycine), stitching residue carrying two staples, C=CCCCC(CCCC=C)(N[*:1])C(=O)[*:2]; B5(23) = 2-amino-2-(pent-4-en-1-yl)hept-6-enoic acid (2,2-bis(4-pentenyl)glycine), stitching residue, C=CCCCC(CCCC=C)(N[*:1])C(=O)[*:2]; B5(24) = 2-amino-2-(pent-4-en-1-yl)hept-6-enoic acid, 2,2-bis(4-pentenyl)glycine (stitching residue), C=CCCCC(CCCC=C)(N[*:1])C(=O)[*:2]; B5(4) = 2,2-bis(4-pentenyl)glycine = 2-amino-2-(pent-4-en-1-yl)hept-6-enoic acid (stitching residue), C=CCCCC(CCCC=C)(N[*:1])C(=O)[*:2]; B5(21) = 2-amino-2-(pent-4-en-1-yl)hept-6-enoic acid, bis(4-pentenyl)glycine (stitching residue), C=CCCCC(CCCC=C)(N[*:1])C(=O)[*:2]; B5(12) = 2-amino-2-(pent-4-en-1-yl)hept-6-enoic acid (two olefin side chains), C=CCCCC(CCCC=C)(N[*:1])C(=O)[*:2]; S(OMe) = O-methyl-L-serine, COC[C@H](N[*:1])C(=O)[*:2]; Phe(2-NO2) = N[C@@H](Cc1ccccc1[N+](=O)[O-])C(=O)O; Phe(3-COOH) = N[C@@H](Cc1cccc(C(=O)O)c1)C(=O)O; Phe(2-Br) = N[C@@H](Cc1ccccc1Br)C(=O)O; Phe(2-Cl) = N[C@@H](Cc1ccccc1Cl)C(=O)O; Phe(3-F) = N[C@@H](Cc1cccc(F)c1)C(=O)O; His(τ-Me) = Cn1cnc(C[C@H](N)C(=O)O)c1; Phe(2-F) = N[C@@H](Cc1ccccc1F)C(=O)O; Bta = N[C@@H](Cc1csc2ccccc12)C(=O)O; His(π-Me) = Cn1cncc1C[C@H](N)C(=O)O; Lys(iPr) = CC(C)NCCCC[C@H](N)C(=O)O; αAllylPro = C=CC[C@@]1(C(=O)O)CCCN1; tBuAla = CC(C)(C)C[C@H](N)C(=O)O; 2Thi = N[C@@H](Cc1cccs1)C(=O)O; 3Thi = N[C@@H](Cc1ccsc1)C(=O)O; S8 = C=CCCCCCC[C@](C)(N)C(=O)O; PyrS2(4) = not defined here; Aib = CC(C)(N)C(=O)O
T1: B-cat-Halo (beta-catenin HaloTag construct transfected into HEK293 cells) (UniProt P35222 1-781)
T1 sequence (looked up): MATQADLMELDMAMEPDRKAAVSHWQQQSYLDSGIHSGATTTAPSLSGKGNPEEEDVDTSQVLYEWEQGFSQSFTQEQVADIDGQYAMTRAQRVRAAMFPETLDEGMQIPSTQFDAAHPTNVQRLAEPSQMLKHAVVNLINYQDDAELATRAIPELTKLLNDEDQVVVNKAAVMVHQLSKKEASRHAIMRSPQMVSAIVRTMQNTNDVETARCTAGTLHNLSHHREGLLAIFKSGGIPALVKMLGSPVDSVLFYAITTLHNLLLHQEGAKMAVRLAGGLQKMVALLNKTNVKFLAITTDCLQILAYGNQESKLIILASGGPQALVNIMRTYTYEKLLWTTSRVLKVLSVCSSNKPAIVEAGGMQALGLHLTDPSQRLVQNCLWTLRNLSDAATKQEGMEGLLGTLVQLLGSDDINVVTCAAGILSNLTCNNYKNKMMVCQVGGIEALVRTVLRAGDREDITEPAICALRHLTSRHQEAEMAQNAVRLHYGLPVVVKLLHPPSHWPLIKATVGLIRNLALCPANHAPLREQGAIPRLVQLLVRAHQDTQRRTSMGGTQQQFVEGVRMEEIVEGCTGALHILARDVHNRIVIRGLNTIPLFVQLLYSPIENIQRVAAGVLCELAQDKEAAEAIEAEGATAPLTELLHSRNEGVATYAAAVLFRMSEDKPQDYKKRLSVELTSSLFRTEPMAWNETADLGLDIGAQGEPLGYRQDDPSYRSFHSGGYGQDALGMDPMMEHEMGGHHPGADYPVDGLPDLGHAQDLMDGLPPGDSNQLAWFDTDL

T2: full-length beta-Catenin (Uniprot ID P35222) (Homo sapiens (Human), UniProt P35222 1-781)
T2 construct: The assay text says 'full-length'; also called bCat; B-Catenin
T2 sequence: T1 sequence (looked up)

T3: full-length beta-Catenin (Uniprot ID P35222) (Homo sapiens (Human), UniProt P35222 1-781)
T3 construct: also called bCat; B-Catenin
T3 sequence: T1 sequence (looked up)

B1: I-1915 (peptide)
peptide: Ac-[αAllylPro]D[tBuAla][B5(4)]D[Phe(3-COOH)][Lys(iPr)]AFL[PyrS2(4)][3Thi][Bta]A-NH2
modifications: staple 1-4, 4-11; not fully specified; printed as Ac-PL3-Asp-Npg-B5-Asp-3COOHF-iPrLys-Ala-Phe-Leu-PyrS2-3Thi-BztA-Ala-NH2; reading uncertain
B2: I-1916 (peptide)
peptide: Ac-[αAllylPro]D[tBuAla][B5(4)]D[Phe(3-COOH)]HAFL[PyrS2(4)][3Thi][Bta]A-NH2
modifications: staple 1-4, 4-11; not fully specified; printed as Ac-PL3-Asp-Npg-B5-Asp-3COOHF-His-Ala-Phe-Leu-PyrS2-3Thi-BztA-Ala-NH2; reading uncertain
B3: I-1917 (peptide)
peptide: Ac-[αAllylPro]D[tBuAla][B5(4)]D[Phe(3-COOH)]KAFL[PyrS2(4)][3Thi][Bta]A-NH2
modifications: staple 1-4, 4-11; not fully specified; printed as Ac-PL3-Asp-Npg-B5-Asp-3COOHF-Lys-Ala-Phe-Leu-PyrS2-3Thi-BztA-Ala-NH2; reading uncertain
B4: I-1914 (peptide)
peptide: Ac-[αAllylPro]D[tBuAla][B5(12)]D[Phe(3-COOH)][Aib]AFL[PyrS2(4)][3Thi][Bta]F-NH2
modifications: staple 1-4, 4-11; not fully specified; printed as Ac-PL3-Asp-Npg-B5-Asp-3COOHF-Aib-Ala-Phe-Leu-PyrS2-3Thi-BztA-Phe-NH2; reading uncertain
B5: I-420 (peptide)
peptide: Ac-[αAllylPro]DA[B5(23)]DEAAFT[S8]F[Bta]H-NH2
modifications: staple 1-4, 4-11
notes: Stapled peptide composition
B6: I-433 (peptide)
peptide: Ac-[αAllylPro]DA[B5(24)]DEAAF[S(OMe)][S8]F[Bta]Q-NH2
modifications: staple 1-4, 4-11
notes: Stapled peptide composition
B7: I-438 (peptide)
peptide: Ac-[αAllylPro]DA[B5(26)]DEAAFN[S8][His(π-Me)][Bta]Q-NH2
modifications: staple 1-4, 4-11
notes: Stapled peptide composition
B8: I-439 (peptide)
peptide: Ac-[αAllylPro]DA[B5(21)]DEAAFN[S8][His(τ-Me)][Bta]Q-NH2
modifications: staple 1-4, 4-11
notes: Stapled peptide composition
B9: I-440 (peptide)
peptide: XDAXDEAAFNXHXQ
modifications: not fully specified; N-terminal Ac, C-terminal NH2; non-natural PL3(1), B5(4), S8(11), 1meH(12), BztA(13); staples PL3-B5 and B5-S8 (olefin metathesis)
notes: Stapled peptide composition
B10: I-423 (peptide)
peptide: Ac-[αAllylPro]DA[B5(23)]DEAAFT[S8]F[Bta]Q-NH2
modifications: staple 1-4, 4-11
notes: Stapled peptide composition
B11: I-435 (peptide)
peptide: Ac-[αAllylPro]DA[B5(24)]DEAAFN[S8][Phe(2-Cl)][Bta]Q-NH2
modifications: staple 1-4, 4-11
notes: Stapled peptide composition
B12: I-436 (peptide)
peptide: Ac-[αAllylPro]DA[B5(24)]DEAAFN[S8][Phe(2-Br)][Bta]Q-NH2
modifications: staple 1-4, 4-11
notes: Stapled peptide composition
B13: I-434 (peptide)
peptide: Ac-[αAllylPro]DA[B5(24)]DEAAFN[S8][Phe(2-F)][Bta]Q-NH2
modifications: staple 1-4, 4-11
notes: Stapled peptide composition
B14: I-450 (peptide)
peptide: Ac-[αAllylPro]DA[B5(21)]DEAA[2Thi]Q[S8][Phe(3-F)]WQ-NH2
modifications: staple 1-4, 4-11
notes: Stapled peptide composition
B15: I-441 (peptide)
peptide: Ac-[αAllylPro]DA[B5(21)]DEAAFN[S8][Phe(2-NO2)][Bta]Q-NH2
modifications: staple 1-4, 4-11
notes: Stapled peptide composition

Target: T1, B-cat-Halo (beta-catenin HaloTag …)
Test: cell-based or functional assay

NanoBRET Abs IC50 | Binder
20.2 µM | B1
9.2 µM | B2
37.7 µM | B3
6.4 µM | B4

Target: T2, full-length beta-Catenin (Uniprot ID …)
Test: fluorescence polarization competition; peptide titrated against 10 nM full-length beta-catenin + 10 nM 5FAM-TCF4(10-53) probe
Procedure: The plate was incubated protected from light for 60 minutes at 20° C. prior to read. Reads were performed on a CLARIOstar plate reader (BMG Labtech) in duplicate, and data were fitted to a 1:1 binding model with hill slope using an in-house script. All provided concentrations are final concentrations.

IC50 | Binder
0.128 µM | B5
0.136 µM | B6
5 µM | B7
5 µM | B8
5 µM | B9
0.105 µM | B10
0.07 µM | B11
0.056 µM | B12
0.0675 µM | B13

Target: T3, full-length beta-Catenin (Uniprot ID …)
Test: fluorescence polarization competition; full-length beta-catenin, competitor 5FAM-TCF4(10-53) probe
Method in brief: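 Readings followed a light-protected 60-minute incubation at 20° C. Each read was done in duplicate. Curves were fit with a 1:1 binding model including hill slope, and stated concentrations are final.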

IC50 | Binder
3.72 µM | B14
0.133 µM | B15

Source: patent US20240116985A1 (published 2024)
